From PMC4909252, “High-resolution NMR structures of the domains of Saccharomyces cerevisiae Tho1” come the findings set out here.

Data set [1] addresses T1, Tho1 N-terminal SAP domain (Saccharomyces cerevisiae, UniProt P40040 1-50).
T1 chain: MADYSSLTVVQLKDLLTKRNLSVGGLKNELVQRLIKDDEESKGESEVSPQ
Briefly: NMR (15N HSQC); 200 uM protein; 15N HSQC, 200 uM protein and oligo; typical NMR buffer 20 mM potassium phosphate pH 6.5, 100 mM NaCl, 5 mM beta-mercaptoethanol, 10% D2O, 25 C. To be noted: protein: recombinant; tags: His6-lipoyl fusion removed by TEV; 15N-labelled; called dsRNA.

The target in data set [2] is T1, Tho1 N-terminal SAP domain. In words: NMR (15N HSQC); 200 uM protein, 200 uM DNA; 15N HSQC, 200 uM protein and oligo; typical NMR buffer 20 mM potassium phosphate pH 6.5, 100 mM NaCl, 5 mM beta-mercaptoethanol, 10% D2O, 25 C. As to conditions: protein: recombinant; tags: His6-lipoyl fusion removed by TEV; 15N-labelled; blunt, self-complementary, 2 copies of one strand.

For the molecule GGACAGCUGUCCCUUCGGGGACAGCUGUCC (structured_RNA) [30-mer dsRNA], the binding result in data set [1] was “no binding”.

B1: random dsDNA 12-mer (dsDNA)
DNA 1: TCCTGATCAGGA
DNA 2: TCCTGATCAGGA
In the case of B1, the binding result in data set [2] is listed as “binds”.
